Measurements as given in patent US6566080 (NEW ENGLAND MEDICAL CENTER HOSPITALS, dated 2003).
Ends that are not written are not given here.

T1: wild-type rat CCK-A receptor (rat, UniProt P30551 1-444)
T1 sequence: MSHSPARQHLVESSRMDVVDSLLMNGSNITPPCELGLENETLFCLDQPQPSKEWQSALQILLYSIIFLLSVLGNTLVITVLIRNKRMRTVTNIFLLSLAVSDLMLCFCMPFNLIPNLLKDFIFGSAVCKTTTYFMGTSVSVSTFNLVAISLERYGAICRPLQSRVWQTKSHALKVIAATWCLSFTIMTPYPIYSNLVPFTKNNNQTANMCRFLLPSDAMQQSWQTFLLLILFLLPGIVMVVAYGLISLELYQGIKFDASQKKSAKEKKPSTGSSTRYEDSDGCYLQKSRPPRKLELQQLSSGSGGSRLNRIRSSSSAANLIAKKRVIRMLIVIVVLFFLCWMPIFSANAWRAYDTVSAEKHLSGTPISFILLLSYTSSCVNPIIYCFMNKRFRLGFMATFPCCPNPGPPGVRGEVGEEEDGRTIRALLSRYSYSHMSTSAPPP

T2: constitutively active human CCK-B/gastrin receptor mutant MH162 (^325L→E) (human, UniProt P32239 1-447)
T2 sequence: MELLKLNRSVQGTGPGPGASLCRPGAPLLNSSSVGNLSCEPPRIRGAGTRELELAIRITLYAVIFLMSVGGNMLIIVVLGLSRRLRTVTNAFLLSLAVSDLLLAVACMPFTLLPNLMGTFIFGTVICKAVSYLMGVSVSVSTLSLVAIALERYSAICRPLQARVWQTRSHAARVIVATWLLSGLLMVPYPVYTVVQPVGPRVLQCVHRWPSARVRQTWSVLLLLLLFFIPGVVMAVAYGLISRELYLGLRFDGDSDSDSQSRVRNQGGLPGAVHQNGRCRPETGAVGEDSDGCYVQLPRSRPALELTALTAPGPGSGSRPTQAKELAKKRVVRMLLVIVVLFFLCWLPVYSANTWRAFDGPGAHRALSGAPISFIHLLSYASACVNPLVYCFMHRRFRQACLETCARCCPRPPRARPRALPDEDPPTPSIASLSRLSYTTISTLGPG

T3: wild-type human CCK-B/gastrin receptor (human, UniProt P32239 1-447)
T3 sequence: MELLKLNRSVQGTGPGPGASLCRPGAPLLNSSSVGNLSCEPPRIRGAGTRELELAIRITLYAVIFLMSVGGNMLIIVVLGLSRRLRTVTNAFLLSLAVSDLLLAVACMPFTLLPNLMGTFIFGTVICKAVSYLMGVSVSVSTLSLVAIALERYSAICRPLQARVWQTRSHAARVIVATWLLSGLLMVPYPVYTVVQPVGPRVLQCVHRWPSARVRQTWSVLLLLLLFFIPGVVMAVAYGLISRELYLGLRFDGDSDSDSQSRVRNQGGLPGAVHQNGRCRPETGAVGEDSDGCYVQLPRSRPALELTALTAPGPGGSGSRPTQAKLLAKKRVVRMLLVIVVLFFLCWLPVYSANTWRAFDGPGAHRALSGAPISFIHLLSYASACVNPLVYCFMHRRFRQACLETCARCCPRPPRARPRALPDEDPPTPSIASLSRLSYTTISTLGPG


Assays:
[1] = biological target: T1, wild-type rat CCK-A receptor; experiment: cell-based or functional assay
[2] = biological target: T2, constitutively active human …; experiment: cell-based or functional assay
[3] = biological target: T3, wild-type human CCK-B/gastrin receptor; experiment: cell-based or functional assay
[4] = biological target: T2, constitutively active human …; experiment: ^125I-CCK-8 competition binding; Ki at wild-type receptor over Ki at MH162
Method: (§1) COS-7 cells (1.5 ×10^6) were plated in 10-cm culture dishes (Nunc) and grown in Dulbecco's modified Eagle's medium containing 10% fetal calf serum in a 5% CO_2, 95% air incubator at 37° C. After an overnight incubation, cells were transfected (Pacholczyk et al., *Nature* 350:350–354, 1991) with 5–7 μg of a pcDNA I expression vector containing hCCKB (HCCKB-pcDNA I). Twenty-four hours after transfection cells were split into 24-well dishes (2 ×10^4 cells/well) (Costar). After an additional 24 hours, competition binding experiments were performed in Hank's buffer supplemented with 25 mM phenylmethylsulfonyl fluoride (PMSF). […] Equilibrium binding occurred after incubation for 80 min. at 37° C. Cell monolayers were then washed three times, hydrolyzed in 1 N NaOH, and the amount of radioactivity to the receptor was quantified. […] All binding experiments were repeated three to five times.
(§2) The competition data were analyzed using computer software which is specifically designed for the purpose of radioligand binding assays (Inplot 4.0, GraphPad, San Diego, Calif.). Analyses of competition and saturation binding data can also be performed using computerized non-linear curve fitting (McPherson, G. A., *J Pharmacol Methods*, 14:213–28, 1985).

[5] = biological target: T3, wild-type human CCK-B/gastrin receptor; experiment: ^125I-CCK-8 competition binding on COS-7 cells transfected with hCCK-B-pcDNAI
Method: as §1, §2

[6] = biological target: T2, constitutively active human …; experiment: ^125I-CCK-8 competition binding on transfected COS-7 cells
[7] = biological target: T3, wild-type human CCK-B/gastrin receptor; experiment: as above

Binder	CCK-8s stimulated (% human basal) inositol phosphate production [1]	Signaling potencies of tested ligands, IC50 [2]	Signaling potencies, Ratio (Wild-type/Mutant) [2]	Signaling potencies of tested ligands, IC50 [3]	Ratio (Wild-type/Mutant) of Ki [4]	IC50 [5]	Ki [6]	Ki [7]
DYMGWMDF (peptide, UniProt P06307 96-103, looked up, not fully specified (residue 2, C-terminus)) [sulfated CCK-8 (CCK-8s)]	684 % human basal							
QGPWLEEEEEAYGWMDF (peptide, UniProt P01350 76-92, looked up, not fully specified (residue 1, C-terminus), domain: gastrin-17) [Gastrin I (unsulphated gastrin-17)]		0.2 nm	1.2	0.24 nm	1.69	0.94 nM	0.8 nM	1.35 nM
